In patent publication US20230303690A1 (published 2023):

B1: sdAb fusion 25-2015-2 (Fc fusion, not shown: a dimerising Fc or GST)
chain: QLQLVESGGGLVQAGGSLRLSCAASGSIESFSFMGWYRQAPGKQRELVAGFTGAASLSFSTYTDAVKGRFTISRDNAKNTVYLQMNSLKPEDTAVYFCNVDPWSQSWPGRYWGQGTQVTVSSGGGGSGGGGSQLQLVESGGGLAQTGGSLRLSCAAAGFTFDDTATGWFRQAPGKNREGVACISSSDGRIHYIDSAKGRFTISKDNAKKTVYLQMDSLKPEDTAVYYCAAARKGSTDCQGAIWGSWGQGTQVIVSSEPKSCDKTHTCPPCPAPELLG
B2: sdAb fusion 25-17-1 (Fc fusion, not shown: a dimerising Fc or GST)
chain: QLQLVESGGGLVQAGGSLRLSCAASGSIESFSFMGWYRQAPGKQRELVAGFTGAASLSFSTYTDAVKGRFTISRDNAKNTVYLQMNSLKPEDTAVYFCNVDPWSQSWPGRYWGQGTQVTVSSGGGGSQLQLVESGGGLVQPGGSLRLSCAASGLTLDGYAIGWFRQAPGKEREGLACISGSDGSTHYLDSVKGRFTISRDNGKNTMALQMNSLQFGDTAIYYCAARRGSCSGSWTYWGQGTQVTVSS
B3: sdAb fusion 25-2015-1 (Fc fusion, not shown: a dimerising Fc or GST)
chain: QLQLVESGGGLVQAGGSLRLSCAASGSIESFSFMGWYRQAPGKQRELVAGFTGAASLSFSTYTDAVKGRFTISRDNAKNTVYLQMNSLKPEDTAVYFCNVDPWSQSWPGRYWGQGTQVTVSSGGGGSQLQLVESGGGLAQTGGSLRLSCAAAGFTFDDTATGWFRQAPGKNREGVACISSSDGRIHYIDSAKGRFTISKDNAKKTVYLQMDSLKPEDTAVYYCAAARKGSTDCQGAIWGSWGQGTQVIVSSEPKSCDKTHTCPPCPAPELLG
B4: sdAb No. 2093 (VHH, part only)
VHH: QVQLVESGGGLVQPGGSLTLSCVASGFTLDYYTVGWFRQVPGKEREGISCISSSDGSTRYADSVKGRFTISRDNAKNTMSLQMNSLKPEDTAVYYCATPGIHGTSCNTSWKYYGQGTQVTVSS
modifications: possible Fc not stated
B5: sdAb No. 2018 (VHH, part only)
VHH: QVQLVESGGGLVQPGGSLKLSCTASGFTLDYYAIAWFRQAPGKEREAVSCISSSDGSTRYADSVKGRFTISRDNAKNTVYLQMNSLKPEDTAVYYCAADPYGDCRGPYDYWGQGTQVTVSS
modifications: possible Fc not stated
B6: sdAb No. 2015 (VHH, part only)
VHH: QLQLVESGGGLAQTGGSLRLSCAAAGFTFDDTATGWFRQAPGKNREGVACISSSDGRIHYIDSAKGRFTISKDNAKKTVYLQMDSLKPEDTAVYYCAAARKGSTDCQGAIWGSWGQGTQVIVSS
modifications: possible Fc not stated
B7: sdAb fusion 25-17-3 (Fc fusion, not shown: a dimerising Fc or GST)
chain: QLQLVESGGGLVQAGGSLRLSCAASGSIESFSFMGWYRQAPGKQRELVAGFTGAASLSFSTYTDAVKGRFTISRDNAKNTVYLQMNSLKPEDTAVYFCNVDPWSQSWPGRYWGQGTQVTVSSGGGGSGGGGSGGGGSQLQLVESGGGLVQPGGSLRLSCAASGLTLDGYAIGWFRQAPGKEREGLACISGSDGSTHYLDSVKGRFTISRDNGKNTMALQMNSLQFGDTAIYYCAARRGSCSGSWTYWGQGTQVTVSSEPKSCDKTHTCPPCPAPELLG
B8: sdAb fusion 25-27-2 (Fc fusion, not shown: a dimerising Fc or GST)
chain: QLQLVESGGGLVQAGGSLRLSCAASGSIESFSFMGWYRQAPGKQRELVAGFTGAASLSFSTYTDAVKGRFTISRDNAKNTVYLQMNSLKPEDTAVYFCNVDPWSQSWPGRYWGQGTQVTVSSGGGGSGGGGSQVQLVESGGGLVQPGGSLRLSCAASGFTLDYYAIGWFRQAPGKEREGVSCIRSSDGSTYYADSVKGRFTISSDNTKNTVYLQMNSLKPEDTAVYYCATDRYSDCRGPYENWGQGTQVTVSSEPKSCDKTHTCPPCPAPELLG
B9: sdAb fusion 25-27-3 (Fc fusion, not shown: a dimerising Fc or GST)
chain: QLQLVESGGGLVQAGGSLRLSCAASGSIESFSFMGWYRQAPGKQRELVAGFTGAASLSFSTYTDAVKGRFTISRDNAKNTVYLQMNSLKPEDTAVYFCNVDPWSQSWPGRYWGQGTQVTVSSGGGGSGGGGSGGGGSQVQLVESGGGLVQPGGSLRLSCAASGFTLDYYAIGWFRQAPGKEREGVSCIRSSDGSTYYADSVKGRFTISSDNTKNTVYLQMNSLKPEDTAVYYCATDRYSDCRGPYENWGQGTQVTVSSEPKSCDKTHTCPPCPAPELLG
B10: sdAb fusion 25-17-2 (Fc fusion, not shown: a dimerising Fc or GST)
chain: QLQLVESGGGLVQAGGSLRLSCAASGSIESFSFMGWYRQAPGKQRELVAGFTGAASLSFSTYTDAVKGRFTISRDNAKNTVYLQMNSLKPEDTAVYFCNVDPWSQSWPGRYWGQGTQVTVSSGGGGSGGGGSQLQLVESGGGLVQPGGSLRLSCAASGLTLDGYAIGWFRQAPGKEREGLACISGSDGSTHYLDSVKGRFTISRDNGKNTMALQMNSLQFGDTAIYYCAARRGSCSGSWTYWGQGTQVTVSSEPKSCDKTHTCPPCPAPELLG

Target: human LAG3 expressed on cells (human) (UniProt P18627)
Test: cell-based or functional assay

Chain of human LAG3 expressed on cells (human) (P18627 23-525): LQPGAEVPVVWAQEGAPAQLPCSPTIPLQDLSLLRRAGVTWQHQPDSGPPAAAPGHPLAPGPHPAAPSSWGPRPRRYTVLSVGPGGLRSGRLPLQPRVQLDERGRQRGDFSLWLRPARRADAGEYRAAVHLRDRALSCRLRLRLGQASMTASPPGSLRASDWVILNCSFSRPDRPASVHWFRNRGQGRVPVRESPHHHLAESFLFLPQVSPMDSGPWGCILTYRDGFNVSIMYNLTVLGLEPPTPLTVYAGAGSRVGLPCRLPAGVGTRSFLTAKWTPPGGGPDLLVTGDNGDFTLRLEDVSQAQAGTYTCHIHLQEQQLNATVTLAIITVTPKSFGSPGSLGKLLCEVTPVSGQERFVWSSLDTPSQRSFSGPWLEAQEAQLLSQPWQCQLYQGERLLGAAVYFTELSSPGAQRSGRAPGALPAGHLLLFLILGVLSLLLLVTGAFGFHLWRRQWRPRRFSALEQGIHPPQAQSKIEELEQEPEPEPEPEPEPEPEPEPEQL

| Binder | Efficacy (Normalized to BMS) [%] | IL-2, % of BMS, at 0.001016105 ug/mL [%] | IL-2, % of BMS, at 0.003048316 ug/mL [%] | IL-2, % of BMS, at 0.009144947 ug/mL [%] | IL-2, % of BMS, at 0.027434842 ug/mL [%] | IL-2, % of BMS, at 0.082304527 ug/mL [%] | IL-2, % of BMS, at 0.24691358 ug/mL [%] | IL-2, % of BMS, at 0.740740741 ug/mL [%] | IL-2, % of BMS, at 2.222222222 ug/mL [%] | IL-2, % of BMS, at 6.666666667 ug/mL [%] | IL-2, % of BMS, at 20 ug/mL [%] | Jurkat T-hLAG3 Assay EC50 [nM] | IL-2, % of BMS, at 0.005080526 ug/mL [%] | IL-2, % of BMS, at 0.015241579 ug/mL [%] | IL-2, % of BMS, at 0.045724737 ug/mL [%] | IL-2, % of BMS, at 0.137174211 ug/mL [%] | IL-2, % of BMS, at 0.411522634 ug/mL [%] | IL-2, % of BMS, at 1.234567901 ug/mL [%] | IL-2, % of BMS, at 3.703703704 ug/mL [%] | IL-2, % of BMS, at 11.11111111 ug/mL [%] | further results |
| --- | --- | --- | --- | --- | --- | --- | --- | --- | --- | --- | --- | --- | --- | --- | --- | --- | --- | --- | --- | --- | --- |
| B1 | 101 | 0.000334 | -15.6 | -12.5 | 20.8 | -0.802 | 20.9 | 59.4 | 83.2 | 88.3 | 96.6 | 5.13 | – | – | – | – | – | – | – | – | – |
| B2 | 106 | 0.0133 | 4.1 | -0.836 | -2.73 | -5.85 | 6.88 | 34 | 82.7 | 89.2 | 110 | 10.9 | – | – | – | – | – | – | – | – | – |
| B3 | 114 | 0.000292 | 10.8 | 7.32 | 30.4 | 10.4 | 35.6 | 59.7 | 97.5 | 112 | 117 | 8.01 | – | – | – | – | – | – | – | – | – |
| B4 | – | – | – | – | – | – | – | – | – | – | – | – | -0.00098 | -3.19 | 5.73 | 0.267 | 1.04 | 4 | 14.9 | 20 | IL-2, % of BMS, at 33.33333333 ug/mL: 14.4%; IL-2, % of BMS, at 100 ug/mL: 22.2% |
| B5 | – | – | – | – | – | – | – | – | – | – | – | – | 0.0212 | 5.32 | 2.83 | 9.41 | 15.3 | 22.8 | 28.6 | 34.6 | IL-2, % of BMS, at 33.33333333 ug/mL: 36.9%; IL-2, % of BMS, at 100 ug/mL: 37% |
| B6 | – | – | – | – | – | – | – | – | – | – | – | – | 0.0179 | 1.06 | 0.925 | 1.92 | 1.8 | 10.6 | 19.1 | 33.6 | IL-2, % of BMS, at 33.33333333 ug/mL: 39.8%; IL-2, % of BMS, at 100 ug/mL: 46.6% |
| B7 | 102 | 0.000639 | 5.71 | 7.44 | 8.91 | 11.7 | 12.1 | 28.9 | 62.8 | 93.2 | 103 | 18.4 | – | – | – | – | – | – | – | – | – |
| B8 | 106 | 0.0147 | 3.76 | 5.39 | 11.1 | 6.04 | 17.2 | 62 | 114 | 123 | 124 | – | – | – | – | – | – | – | – | – | – |
| B9 | – | 0.0673 | -5.25 | 2.64 | -8.9 | -0.289 | 3.53 | 17 | 58.4 | 120 | 168 | – | – | – | – | – | – | – | – | – | – |
| B10 | 102 | -0.00048 | -2.52 | -0.621 | 12 | -7.68 | -2.21 | 16.4 | 77.7 | 85.1 | 111 | 14 | – | – | – | – | – | – | – | – | – |
